Source: publication PMC10397247

What was measured:
4H918-AA = target: T1, 4H918-AA; test: two-hybrid library CCmax;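 further: natural log of median RNA to DNA barcode read ratio; higher means stronger binding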
T1 chain: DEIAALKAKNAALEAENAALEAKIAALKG

4H953-AA = target: T2, 4H953-AA; test: two-hybrid library CCmax; details: mean of both orientations;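 further: natural log of median RNA to DNA barcode read ratio; higher means stronger binding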
T2 chain: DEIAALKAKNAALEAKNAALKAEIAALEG

4H967-AA = target: T3, 4H967-AA; test: two-hybrid library CCmax; details: mean of both orientations;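 further: natural log of median RNA to DNA barcode read ratio; higher means stronger binding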
T3 chain: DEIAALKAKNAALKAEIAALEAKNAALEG

4H2903-AA = target: T4, 4H2903-AA; test: two-hybrid library CCmax;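 further: natural log of median RNA to DNA barcode read ratio; higher means stronger binding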
T4 chain: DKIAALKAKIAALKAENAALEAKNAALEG

4H2947-AA = target: T5, 4H2947-AA; test: two-hybrid library CCmax; details: mean of both orientations
T5 chain: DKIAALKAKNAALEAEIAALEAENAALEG

4H2961-AA = target: T6, 4H2961-AA; test: two-hybrid library CCmax; details: mean of both orientations
T6 chain: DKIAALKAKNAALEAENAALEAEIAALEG

4H3049-AA = target: T7, 4H3049-AA; test: two-hybrid library CCmax; details: mean of both orientations
T7 chain: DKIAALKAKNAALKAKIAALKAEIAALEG

4H3094-AA = target: T8, 4H3094-AA; test: two-hybrid library CCmax; details: mean of both orientations
T8 chain: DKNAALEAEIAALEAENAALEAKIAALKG

4H3129-AA = target: T9, 4H3129-AA; test: two-hybrid library CCmax; details: mean of both orientations
T9 chain: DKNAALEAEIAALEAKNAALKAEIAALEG

4H324-AA = target: T10, 4H324-AA; test: two-hybrid library CCmax; details: mean of both orientations
T10 chain: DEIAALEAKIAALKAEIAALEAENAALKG

4H341-AA = target: T11, 4H341-AA; test: two-hybrid library CCmax; details: mean of both orientations
T11 chain: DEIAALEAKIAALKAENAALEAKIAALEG

4H3414-AA = target: T12, 4H3414-AA; test: two-hybrid library CCmax; details: mean of both orientations
T12 chain: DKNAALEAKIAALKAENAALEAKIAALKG

4H3449-AA = target: T13, 4H3449-AA; test: two-hybrid library CCmax; details: mean of both orientations
T13 chain: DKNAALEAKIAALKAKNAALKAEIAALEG

4H3595-AA = target: T14, 4H3595-AA; test: two-hybrid library CCmax; details: mean of both orientations
T14 chain: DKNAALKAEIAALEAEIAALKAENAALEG

4H3619-AA = target: T15, 4H3619-AA; test: two-hybrid library CCmax; details: mean of both orientations
T15 chain: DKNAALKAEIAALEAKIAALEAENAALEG

4H3629-AA = target: T16, 4H3629-AA; test: two-hybrid library CCmax; details: mean of both orientations
T16 chain: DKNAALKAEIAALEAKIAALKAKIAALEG

4H3777-AA = target: T17, 4H3777-AA; test: two-hybrid library CCmax; details: mean of both orientations
T17 chain: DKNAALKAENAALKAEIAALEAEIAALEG

4H3782-AA = target: T18, 4H3782-AA; test: two-hybrid library CCmax; details: mean of both orientations
T18 chain: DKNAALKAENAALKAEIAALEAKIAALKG

4H380-AA = target: T19, 4H380-AA; test: two-hybrid library CCmax; details: mean of both orientations
T19 chain: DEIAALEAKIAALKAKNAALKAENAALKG

4H3915-AA = target: T20, 4H3915-AA; test: two-hybrid library CCmax; details: mean of both orientations
T20 chain: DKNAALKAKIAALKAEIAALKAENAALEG

4H3939-AA = target: T21, 4H3939-AA; test: two-hybrid library CCmax; details: mean of both orientations
T21 chain: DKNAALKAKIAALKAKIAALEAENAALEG

4H3969-AA = target: T22, 4H3969-AA; test: two-hybrid library CCmax; details: mean of both orientations
T22 chain: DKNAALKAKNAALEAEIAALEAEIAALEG

4H3974-AA = target: T23, 4H3974-AA; test: two-hybrid library CCmax; details: mean of both orientations
T23 chain: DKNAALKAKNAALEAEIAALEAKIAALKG

4H432-AA = target: T24, 4H432-AA; test: two-hybrid library CCmax; details: mean of both orientations
T24 chain: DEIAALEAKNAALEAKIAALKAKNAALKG

4H446-AA = target: T25, 4H446-AA; test: two-hybrid library CCmax; details: mean of both orientations
T25 chain: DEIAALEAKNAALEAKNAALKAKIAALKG

4H464-AA = target: T26, 4H464-AA; test: two-hybrid library CCmax; details: mean of both orientations
T26 chain: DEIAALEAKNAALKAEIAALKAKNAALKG

4H483-AA = target: T27, 4H483-AA; test: two-hybrid library CCmax; details: mean of both orientations
T27 chain: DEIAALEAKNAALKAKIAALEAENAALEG

4H63-AA = target: T28, 4H63-AA; test: two-hybrid library CCmax; details: mean of both orientations
T28 chain: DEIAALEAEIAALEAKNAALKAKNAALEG

4H3905-AA = target: T29, 4H3905-AA; test: two-hybrid library CCmax
T29 chain: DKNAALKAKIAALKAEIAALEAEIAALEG

4H4038-AA = target: T30, 4H4038-AA; test: two-hybrid library CCmax; details: mean of both orientations
T30 chain: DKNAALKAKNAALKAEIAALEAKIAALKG

4H43-AA = target: T31, 4H43-AA; test: two-hybrid library CCmax; details: mean of both orientations
T31 chain: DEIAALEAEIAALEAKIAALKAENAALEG

4H451-AA = target: T32, 4H451-AA; test: two-hybrid library CCmax; details: mean of both orientations
T32 chain: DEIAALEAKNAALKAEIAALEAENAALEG

4H510-AA = target: T33, 4H510-AA; test: two-hybrid library CCmax; details: mean of both orientations
T33 chain: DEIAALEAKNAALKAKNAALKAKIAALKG

4H_APH = target: T34, 4H_APH; test: two-hybrid library CCmax; details: mean of both orientations
T34 chain: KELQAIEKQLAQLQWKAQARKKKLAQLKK

4H_BCR = target: T35, 4H_BCR; test: two-hybrid library CCmax; details: mean of both orientations
T35 chain: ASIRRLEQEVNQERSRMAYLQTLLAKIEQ

4H_GCN4 = test: two-hybrid library CCmax
Chain of 4H_GCN4 (chain, as listed by the source): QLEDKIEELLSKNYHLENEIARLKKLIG

GCN2_T = test: two-hybrid library CCmax
O11-AA = target: T36, O11-AA; test: two-hybrid library CCmax; details: mean of both orientations
T36 chain: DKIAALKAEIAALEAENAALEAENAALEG

O13-AA = target: T37, O13-AA; test: two-hybrid library CCmax; details: mean of both orientations
T37 chain: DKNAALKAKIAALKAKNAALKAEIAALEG

O14-AA = target: T38, O14-AA; test: two-hybrid library CCmax; details: mean of both orientations
T38 chain: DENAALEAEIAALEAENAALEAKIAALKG

O9-bA = target: T39, O9-bA; test: two-hybrid library CCNG1; details: mean of both orientations
T39 chain: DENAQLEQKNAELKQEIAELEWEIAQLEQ

## DEIAALKAKNAALEAENAALEAKIAALKG [4H918-AA]
4H918-AA
  interaction score: 1.24
4H953-AA
  interaction score: 2.09
4H967-AA
  interaction score: -0.889

## DKIAALKAKIAALKAENAALEAKNAALEG [4H2903-AA]
4H2903-AA
  interaction score: -1.28
4H2947-AA
  interaction score: -1.62
4H2961-AA
  interaction score: -1.88
4H3049-AA
  interaction score: -1.81
4H3094-AA
  interaction score: -0.448
4H3129-AA
  interaction score: -0.64
4H324-AA
  interaction score: -0.202
4H341-AA
  interaction score: -0.593
4H3414-AA
  interaction score: -1.72
4H3449-AA
  interaction score: -1.8
4H3595-AA
  interaction score: -0.655
4H3619-AA
  interaction score: -0.237
4H3629-AA
  interaction score: -0.902
4H3777-AA
  interaction score: -1.22
4H3782-AA
  interaction score: -1.31
4H380-AA
  interaction score: 0.283
4H3915-AA
  interaction score: -1.48
4H3939-AA
  interaction score: -1.78
4H3969-AA
  interaction score: -0.566
4H3974-AA
  interaction score: -0.747
4H432-AA
  interaction score: -1.38
4H446-AA
  interaction score: -0.722
4H464-AA
  interaction score: -1.44
4H483-AA
  interaction score: -1.33
4H63-AA
  interaction score: 2.45

## DKNAALKAKIAALKAEIAALEAEIAALEG [4H3905-AA]
4H3905-AA
  interaction score: 1.48
4H4038-AA
  interaction score: -0.568
4H43-AA
  interaction score: 0.782
4H451-AA
  interaction score: -1.34
4H510-AA
  interaction score: -1.37
4H_APH
  interaction score: -1.84
4H_BCR
  interaction score: -1.61
4H_GCN4
  interaction score: -1.53
GCN2_T
  interaction score: -1.53
O11-AA
  interaction score: -1.04
O13-AA
  interaction score: 0.128
O14-AA
  interaction score: 0.881

## DENAQLEQKNAELKQEIAELEWEIAQLEQ [O9-bA]
O9-bA
  interaction score: -0.959
